From article PMC4846438, “The crystal structure of human dopamine β-hydroxylase at 2.9 Å resolution” (Science Advances, 2016)
Several values for one entry are separate records, joined by “and”; a condition that tells them apart may be missing. Equal entries are not always repeated.

Target: the molecule itself
Experiment: SEC; Superdex 200 HR 16/60, 10 mM Hepes, 150 mM NaCl, pH 7.5, 1 ml/min; dimer and tetramer separated; they do not interconvert in the pH interval 4 to 9

B1: soluble human dopamine β-hydroxylase, residues 40 to 617, FLAG-tagged (enzyme, UniProt P09172 40-617, looked up)
chain: SAPRESPLPYHIPLDPEGSLELSWNVSYTQEAIHFQLLVRRLKAGVLFGMSDRGELENADLVVLWTDGDTAYFADAWSDQKGQIHLDPQQDYQLLQVQRTPEGLTLLFKRPFGTCDPKDYLIEDGTVHLVYGILEEPFRSLEAINGSGLQMGLQRVQLLKPNIPEPELPSDACTMEVQAPNIQIPSQETTYWCYIKELPKGFSRHHIIKYEPIVTKGNEALVHHMEVFQCAPEMDSVPHFSGPCDSKMKPDRLNYCRHVLAAWALGAKAFYYPEEAGLAFGGPGSSRYLRLEVHYHNPLVIEGRNDSSGIRLYYTAKLRRFNAGIMELGLVYTPVMAIPPRETAFILTGYCTDKCTQLALPPSGIHIFASQLHTHLTGRKVVTVLVRDGREWEIVNQDNHYSPHFQEIRMLKKVVSVHPGDVLITSCTYNTEDRELATVGGFGILEEMCVNYVHYYPQTQLELCKSAVDAGFLQKYFHLINRFNNEDVCTCPQASVSQQFTSVPWNSFNRDVLKALYSFAPISMHCNKSSAVRFQGEWNLQPLPKVISTLEEPTPQCPTSQGRSPAGPTVVSIGGGKG
modifications: glycosylation at Asn64, Asn184, Asn344 and Asn566; intermolecular disulfides C528-C530 and C530-C528 between the two chains of the dimer
notes: human dopamine β-hydroxylase, residues 40 to 617; the first 39 residues (signal anchor for type II membrane proteins) left out to obtain soluble DBH; the dimeric fraction was crystallised; A SeMet-labelled form was used for phasing only; also called DBH; dopamine β-monooxygenase; not shown: FLAG, C-terminal, kept
stoichiometry N: 2 and 4
